In patent US20120064001A1:

What was measured:
[1] = molecular target: recombinant Mouse VEGF164 (mouse) (UniProt Q00731); experiment: SPR (Biacore T100); monomeric scFv over 1000 RU mouse VEGF164 on a CM5 chip; 1:1 fit
PlGF = experiment: indirect ELISA on coated growth factor; 2C3 at 1.0 ug/ml
VEGF-B = experiment: as above
VEGF-C = experiment: as above
VEGF-D = experiment: as above
human VEGF-A (human) [2] = molecular target: human VEGF-A (human) (UniProt P15692); experiment: as above
[3] = molecular target: mouse VEGF (isoform not given) (mouse) (UniProt Q00731); experiment: as above
human VEGF-A (human) [4] = molecular target: human VEGF-A (human) (UniProt P15692); experiment: SPR (Biacore T100); IgG over 100 RU human VEGF-A on a CM5 chip; 1:1 fit; 25°C
human VEGF-A (human) [5] = molecular target: human VEGF-A (human) (UniProt P15692); experiment: SPR (Biacore T100); IgG over 100 RU human VEGF-A on a CM5 chip; 1:1 fit; 37°C

human VEGF-A (human), sequence (P15692 other isoform, or with tags, fused parts or gaps limits assumed): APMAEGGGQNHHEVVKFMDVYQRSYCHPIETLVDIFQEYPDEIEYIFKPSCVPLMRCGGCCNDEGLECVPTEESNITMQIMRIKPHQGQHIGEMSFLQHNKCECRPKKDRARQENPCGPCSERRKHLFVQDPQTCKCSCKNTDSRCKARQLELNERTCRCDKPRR
mouse VEGF (isoform not given) (mouse), sequence (Q00731 other isoform, or with tags, fused parts or gaps limits assumed): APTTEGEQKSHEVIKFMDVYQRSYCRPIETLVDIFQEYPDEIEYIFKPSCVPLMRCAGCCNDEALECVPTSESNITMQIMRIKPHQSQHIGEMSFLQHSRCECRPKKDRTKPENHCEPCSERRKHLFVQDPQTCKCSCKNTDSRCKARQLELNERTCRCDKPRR

Row | Kd [1] [nM] | mean absorbance (absorbance at 450 nM) (PlGF) | mean absorbance (absorbance at 450 nM) (VEGF-B) | mean absorbance (absorbance at 450 nM) (VEGF-C) | mean absorbance (absorbance at 450 nM) (VEGF-D) | mean absorbance (absorbance at 450 nM) (human VEGF-A (human) [2]) | mean absorbance (absorbance at 450 nM) [3] | Kd (human VEGF-A (human) [4]) [nM] | Kd (human VEGF-A (human) [5]) [nM] | Substance
1 | 10 | – | – | – | – | – | – | – | – | EJ173/112-C11 (r84/PGN311) scFv
2 | – | 0.1 | 0.09 | 0.09 | 0.12 | 3.07 | 0.09 | 12.4 | 313 | murine 2C3 anti-VEGF antibody (IgG)
